Test results as given in patent publication US20240141072A1 (published 2024).
Where a chain is given by its changes, count along the chain named. Each block holds one binder with its values, some of them ahead of it.

Molecular target: T1, biotinylated human DLL3 protein expressed as a human IgG1 fusion protein (human, UniProt Q9NYJ7 27-492, limits assumed, biotinylated)
T1 sequence: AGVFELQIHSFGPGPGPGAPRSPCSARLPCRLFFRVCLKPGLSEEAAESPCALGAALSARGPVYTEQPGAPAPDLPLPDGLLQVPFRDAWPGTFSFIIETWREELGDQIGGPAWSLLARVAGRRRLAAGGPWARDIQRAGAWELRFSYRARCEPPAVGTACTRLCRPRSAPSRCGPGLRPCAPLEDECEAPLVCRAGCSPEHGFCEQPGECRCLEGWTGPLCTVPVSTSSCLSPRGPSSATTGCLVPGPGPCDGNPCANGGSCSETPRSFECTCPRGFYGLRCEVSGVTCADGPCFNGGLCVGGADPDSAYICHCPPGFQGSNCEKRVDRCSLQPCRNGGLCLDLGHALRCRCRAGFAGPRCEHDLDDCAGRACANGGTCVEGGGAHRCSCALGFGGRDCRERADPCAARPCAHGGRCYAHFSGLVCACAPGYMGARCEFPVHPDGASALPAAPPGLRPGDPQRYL
Assay: Octet BLI, single 50 nM
Experimental: Using the conditioned medium with known concentrations of the anti-DLL3 trispecific proteins, the binding affinities of the anti-DLL3 trispecific proteins toward human DLL3 protein were measured using a method where biotinylated version of human DLL3 protein were expressed as a human IgG1 fusion protein, and the binding affinity measurement was carried out in an Octet instrument with streptavidin tips.

B1: 1C07 anti-DLL3 trispecific protein (other)
chain: EVQLVESGGGLVQPGGSLTLSCVASGSTSSINAMAWYRRAPGKQRELVAGISSDGSKVYADSVKGRFTISRDNAKNSVYLQMNSLRAEDTAVYYCYYFRTVSGSSMRYWGQGTLVTVSS
notes: not shown: linker 1808, anti-albumin sdAb, linker 1808, anti-CD3 fragment, His6 1819
- Kd: 7.1 nM

B3: 1E011 anti-DLL3 trispecific protein (other)
chain: B1 chain with S27N, A35G, A60Y, S102R, M106Q
notes: as for B1
- Kd: 2.7 nM

B5: 1F09 anti-DLL3 trispecific protein (other)
chain: B1 chain with S27N, A35G, D54N, S102T
notes: as for B1
- Kd: 35 nM

B7: 1C04 anti-DLL3 trispecific protein (other)
chain: B1 chain with S27N
notes: as for B1
- Kd: 8.1 nM

B10: 1D010 anti-DLL3 trispecific protein (other)
chain: B1 chain with I31N, A60T, V101R
notes: as for B1
- Kd: 5 nM

B11: 1A04 anti-DLL3 trispecific protein (other)
chain: B1 chain with A35G, A60E
notes: as for B1
- Kd: 7.8 nM

B12: 1E04 anti-DLL3 trispecific protein (other)
chain: B1 chain with S30R, A33G, A35G, V48P, V58A, V101A, S104T
notes: as for B1
- Kd: 8.1 nM

B14: 1D02 anti-DLL3 trispecific protein (other)
chain: B1 chain with D54N, T100Q
notes: as for B1
- Kd: 14 nM

B20: 1F07 anti-DLL3 trispecific protein (other)
chain: B1 chain with A35G, Y59D
notes: as for B1
- Kd: 13 nM

B21: 1B02 anti-DLL3 trispecific protein (other)
chain: B1 chain with A35G, V58I
notes: as for B1
- Kd: 11 nM

B23: 1C011 anti-DLL3 trispecific protein (other)
chain: B1 chain with S27T, A35G, A60E
notes: as for B1
- Kd: 7.6 nM

B25: 1F08 anti-DLL3 trispecific protein (other)
chain: B1 chain with A60K, T100N
notes: as for B1
- Kd: 31 nM

B30: 1B05 anti-DLL3 trispecific protein (other)
chain: B1 chain with F98Y
notes: as for B1
- Kd: 8 nM

B31: 1C012 anti-DLL3 trispecific protein (other)
chain: B1 chain with S27I, A35G, D61G, S102R
notes: as for B1
- Kd: 8.5 nM

B32: 1D012 anti-DLL3 trispecific protein (other)
chain: B1 chain with S30H, A35G, K57R, S104G
notes: as for B1
- Kd: 9.3 nM

B33: 1B011 anti-DLL3 trispecific protein (other)
chain: B1 chain with S30R, A35G, S102Y
notes: as for B1
- Kd: 5.7 nM

B37: 1D01 anti-DLL3 trispecific protein (other)
chain: B1 chain with S30D, A35G, G55K, S102R
notes: as for B1
- Kd: 5.8 nM

B38: 1B03 anti-DLL3 trispecific protein (other)
chain: B1 chain with S27K, A60T, M106A
notes: as for B1
- Kd: 8.7 nM

B41: 1A03 anti-DLL3 trispecific protein (other)
chain: B1 chain with M106S
notes: as for B1
- Kd: 6.3 nM

B42: 1A05 anti-DLL3 trispecific protein (other)
chain: B1 chain with T28P, A35G, V48S, S102R, R107S
notes: as for B1
- Kd: 4 nM

B43: 1F01 anti-DLL3 trispecific protein (other)
chain: B1 chain with A35G, A60G, G103R
notes: as for B1
- Kd: 9.4 nM

B45: 1B01 anti-DLL3 trispecific protein (other)
chain: B1 chain with S30I, A35G, V48A, Y59I, T100R
notes: as for B1
- Kd: 5.2 nM

B47: 1F02 anti-DLL3 trispecific protein (other)
chain: B1 chain with V48A, G55Q, V63A, R107S
notes: as for B1
- Kd: 4 nM

B48: 1E07 anti-DLL3 trispecific protein (other)
chain: B1 chain with A60N, S102R, M106Q
notes: as for B1
- Kd: 7.1 nM

B49: 1D06 anti-DLL3 trispecific protein (other)
chain: B1 chain with A35G, G55N, S102H
notes: as for B1
- Kd: 6.8 nM

B52: 1B09 anti-DLL3 trispecific protein (other)
chain: B1 chain with A60V
notes: as for B1
- Kd: 5.4 nM

B53: 1D08 anti-DLL3 trispecific protein (other)
chain: B1 chain with S27L, A35G, T100M
notes: as for B1
- Kd: 10 nM

B55: 1E012 anti-DLL3 trispecific protein (other)
chain: B1 chain with I31T, A35G, A60V, R107V
notes: as for B1
- Kd: 5.3 nM

B56: 1C02 anti-DLL3 trispecific protein (other)
chain: B1 chain with A60S, Y108S
notes: as for B1
- Kd: 6.2 nM

More lines, in order of falling Kd, values ahead:

- Kd: 25 nM
B13: 1C08 anti-DLL3 trispecific protein (other)
chain: B1 chain with S30R, A35G, V48P, D61V, S105P
notes: as for B1

- Kd: 14 nM
B35: 1E05 anti-DLL3 trispecific protein (other)
chain: B1 chain with S30V, V48A, D61K, V63A, R99N
notes: as for B1

- Kd: 12 nM
B34: 1B08 anti-DLL3 trispecific protein (other)
chain: B1 chain with S27T, A35G, A60V, T100F
notes: as for B1

- Kd: 11 nM
B57: 1B04 anti-DLL3 trispecific protein (other)
chain: B1 chain with S27T, A35G, K57L, T100I, S102R
notes: as for B1

- Kd: 10 nM
B8: 1F04 anti-DLL3 trispecific protein (other)
chain: B1 chain with S27G, A35G, A60S, M106A
notes: as for B1

- Kd: 9.7 nM
B54: 1D04 anti-DLL3 trispecific protein (other)
chain: B1 chain with I31K, A35G, S104A
notes: as for B1

- Kd: 9.4 nM
B4: 1E08 anti-DLL3 trispecific protein (other)
chain: B1 chain with S27K, A35G, Y59I, S102L
notes: as for B1

- Kd: 8.9 nM
B16: 1B07 anti-DLL3 trispecific protein (other)
chain: B1 chain with T28G, A35G, A60S, T100H
notes: as for B1

- Kd: 8.9 nM
B50: 1F06 anti-DLL3 trispecific protein (other)
chain: B1 chain with S27T, A35G, Y59I, S102L
notes: as for B1

- Kd: 8.6 nM
B40: 1A07 anti-DLL3 trispecific protein (other)
chain: B1 chain with T28I, A35G, T100M
notes: as for B1

- Kd: 8.3 nM
B15: 1C06 anti-DLL3 trispecific protein (other)
chain: B1 chain with S30I, A35G, A60E, T100A
notes: as for B1

- Kd: 7 nM
B18: 1E02 anti-DLL3 trispecific protein (other)
chain: B1 chain with S27Q, A35G, K57Q, V101K
notes: as for B1

- Kd: 7 nM
B46: 1A01 anti-DLL3 trispecific protein (other)
chain: B1 chain with S27F, A35G, K57F, T100H
notes: as for B1

- Kd: 6.8 nM
B19: 1B010 anti-DLL3 trispecific protein (other)
chain: B1 chain with S30R, A35G, V101K
notes: as for B1

- Kd: 6.6 nM
B24: 1A09 anti-DLL3 trispecific protein (other)
chain: B1 chain with V58L, S102Q
notes: as for B1

- Kd: 6.5 nM
B9: 1A010 anti-DLL3 trispecific protein (other)
chain: B1 chain with M34Y, A35G, S102Y
notes: as for B1

- Kd: 6.3 nM
B39: 1F010 anti-DLL3 trispecific protein (other)
chain: B1 chain with S30R, A35G, A60K
notes: as for B1

- Kd: 5.8 nM
B6: 1F05 anti-DLL3 trispecific protein (other)
chain: B1 chain with S29R, A35G, R99H
notes: as for B1

- Kd: 5.8 nM
B51: 1D03 anti-DLL3 trispecific protein (other)
chain: B1 chain with M34I, A35G, Y59L, T100I, R107G
notes: as for B1

- Kd: 5.7 nM
B44: 1E010 anti-DLL3 trispecific protein (other)
chain: B1 chain with T28V, A35G, A60I, S104L
notes: as for B1

- Kd: 5.6 nM
B17: 1A06 anti-DLL3 trispecific protein (other)
chain: B1 chain with A35G, V48A, K57S, M106K
notes: as for B1

- Kd: 5.3 nM
B26: 1C05 anti-DLL3 trispecific protein (other)
chain: B1 chain with S105H
notes: as for B1

- Kd: 5.2 nM
B36: 1D09 anti-DLL3 trispecific protein (other)
chain: B1 chain with A60T, V101I
notes: as for B1

- Kd: 4.9 nM
B22: 1A012 anti-DLL3 trispecific protein (other)
chain: B1 chain with A60S, S102L
notes: as for B1

- Kd: 4.4 nM
B2: 1D011 anti-DLL3 trispecific protein (other)
chain: B1 chain with G55N, S104H
notes: as for B1

- Kd: 4.4 nM
B27: 1E09 anti-DLL3 trispecific protein (other)
chain: B1 chain with A60T, V101R
notes: as for B1

- Kd: 4.3 nM
B29: 1C01 anti-DLL3 trispecific protein (other)
chain: B1 chain with A35G, A60R, R107G
notes: as for B1

- Kd: 2.5 nM
B28: 1C010 anti-DLL3 trispecific protein (other)
chain: B1 chain with S30R, A35G, I51V, R107S
notes: as for B1
